In PMC12637205, “A natural allele of the transcription factor gene TaMYB-D7b is a genetic signature for phosphorus deficiency in wheat”:

Target: TaMYB-D7b (2174 allele, Gly-50) (Triticum aestivum cv. 2174, UniProt A0A410P7J2)
Assay: EMSA; EMSA: 100 fmol biotin probe, 1 ug protein, 20 uL, 1x binding buffer, 2.5% glycerol, 5 mM MgCl2, 1 ug poly(dI-dC), room temperature 30 min; pH and salt not given
Conditions: protein: recombinant; tags: His (pET32a vector); label: 5'-biotin

Chain of TaMYB-D7b (2174 allele, Gly-50) (A0A410P7J2 entry or part of it): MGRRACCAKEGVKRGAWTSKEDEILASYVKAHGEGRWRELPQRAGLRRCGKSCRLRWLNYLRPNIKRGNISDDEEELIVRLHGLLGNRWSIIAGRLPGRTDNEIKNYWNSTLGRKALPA

B1: TaCHSL-A2 promoter probe (27 bp) (dsDNA)
DNA 1: TGCAAAGAAAACCAACCAACACTTACC
DNA 2: GGTAAGTGTTGGTTGGTTTTCTTTGCA
Question: Does B1 bind?
Answer: binds
